The target of assay [1] is T1, Bcl-2 (Homo sapiens, UniProt P10415).
T1 construct: expressed in transfected cells; host or cells: HEK293T
The experiment in a line: Bcl-2 conformation by epitope-specific antibody immunofluorescence (flow cytometry). It counts as cell-based. The settings on record: HEK293T, co-expressed with Bcl-2, 14 h. The procedure: Therefore the possibility that a conformational change might be involved in the conversion of Bcl-2 from anti-apoptotic to pro-apoptotic function was explored. To this end, the effects of TR3 on binding of Bcl-2 to various anti-Bcl-2 antibodies recognizing different epitopes were compared. Antibody binding to Bcl-2 was measured by immunofluorescence using flow cytometry (See FIGS. 9a-f) or by immunoprecipitation.
The transfected cells were identified by their green fluorescence by flow cytometric analysis, and the intensity of Bcl-2 immunofluorescence was compared between the GFP-positive and GFP-negative cells. […] This TR3/ΔDBD-induced change in Bcl-2 conformation was also observed in PBLs in addition to HEK293T cells (See FIGS. 9a-f).

Assay [2] deals with peripheral blood lymphocytes (PBLs). The experiment in a line: TR3 subcellular localization in peripheral blood lymphocytes. The class given is cell-based, human. The note with it: DsRed2-Mito.
Description: TR3 subcellular localization was studied by both confocal microscopy and subcellular fractionation approaches. For microscopy experiments, freshly isolated PBLs were transfected with GFP-TR3, then treated with phorbol ester TPA and the calcium ionophore ionomycin, which induce TR3-dependent apoptosis of T-lymphocytes.
Assay [3] has as its system 293T cells. Kind of assay: DAPI apoptosis assay in 293T cells. It counts as cell-based, human. The procedure: Apoptosis assays—For nuclear morphological change analysis, cells were trypsinized, washed with PBS, fixed with 3.7% paraformaldehyde, and stained with DAPI (4,6-diamidino-2-phenylindole) (50 μg/ml) to visualize the nuclei by UV-microscopy. The percentages of apoptotic cells were determined by counting 300 GFP-positive cells, scoring cells having nuclear fragmentation and/or chromatin condensation.
DAPI staining was used to study the apoptotic effect of TR3/Bcl-2 interaction. 293T cells were transfected with GFP-TR3/ΔDBD alone or together with Bcl-2. After 36 h, nuclei were stained by DAPI and nuclear fragmentation and chromatin condensation were identified. Cells were also stained with anti-Bcl-2 antibody, followed by TRITC-conjugated secondary antibody (Sigma). Bcl-2 and GFP-ΔDBD expression and nuclear morphology were visualized by fluorescence microscopy, and the two images were overlaid. […] But, when Bcl-2 was cotransfected, a significant amount of transfected cells underwent apoptosis. For example, approximately 4% of cells transfected with either TR3/ΔDBD or Bcl-2 were apoptotic, compared to 35% of cell transfected with both. […] Cotransfection of Bcl-2, however, prevented BAX-induced apoptosis in these cells (see FIG. 4). The effect of Bcl-2 on apoptotic potential of TR3/ΔDBD in lung cancer and breast cancer cells was also investigated.
To characterize the pro-apoptotic mechanism of Bcl-2 in the setting of TR3-induced apoptosis, various TR3 mutants and Bcl-2 mutants were co-expressed in HEK293T cells. TR3 mutants were transfected into 293T cells together with or without Bcl-2 expression vector or with Bcl-2 mutants. After 36 h, nuclei were stained by DAPI. Cells displaying nuclear condensation or fragmentation were scored.
The role of various Bcl-2 mutants in mediating apoptosis induction by TR3 was next studied. […] The hydrophobic cleft of Bcl-2 is involved in its anti-apoptotic effect through its interaction with BH3 domain of pro-apoptotic molecules (Reed 1997 Semin Hematol 34:9-19; Reed 1997 Nature 387:773-776). To investigate whether the BH3 domain-binding motif of Bcl-2 is also involved in its apoptotic effect, various Bcl-2 mutants including Y108K Bcl-2, with a mutation in the BH3 domain-binding cleft, L137A, and G145A (all with impaired interaction with bax), were cotransfected together with TR3/ΔDBD. […] Bcl-2 mutations (Y108K, L137A, G145A) that impaired its interaction with Bax, abolished the Bcl-2 inhibitory effect on Bax-induced apoptosis, consistent with previous observations that the hydrophobic cleft of Bcl-2 is essential for its anti-apoptotic effect. […] Thus, an intact BH3 domain-binding motif in Bcl-2 is involved in its pro-apoptotic effect. In contrast to the inhibitory effect of Bcl-2 on Bax-induced apoptosis TR3/ΔDBD-induced apoptosis was augmented by co-expression of Bcl-2 in HEK293T cells.
Mitochondrial targeting of TR3 has been previously identified as being involved in its apoptotic effect. To study whether mitochondrial localization of the TR3/ΔDBD/Bcl-2 complex was involved in their apoptotic effect, TR3/ΔDBD was cotransfected with Bcl-2/ATM, a Bcl-2 lacking its transmembrane domain. […] Thus, mitochondrial localization of TR3/ΔDBD/Bcl-2 complex is involved in this apoptotic effect.

The target of assay [4] is T1, Bcl-2. The experiment in a line: Bcl-2 conformation by immunoprecipitation with epitope-specific antibodies. It counts as binding. The source says: Second, the effects of TR3/ΔDBD on Bcl-2 conformation were studied by immunoprecipitation assays.
Assay [5] has as its target T2, Bcl-2/ΔBH4 (Homo sapiens, UniProt P10415, DEL7-30).
T2 construct: expressed in transfected cells; host or cells: HEK293T
The experiment in a line: Co-IP assay with Bcl-2/ΔBH4. The class given is binding. The procedure: Therefore, TR3/ΔDBD was analyzed as to its interaction with a fragment of Bcl-2 comprising the first 80 amino acids (Bcl-2/1-80). […] The Bcl-2/1-80 fragment encompasses the N-terminal BH4 domain followed by an unstructured loop domain of approximately 50 amino acids length. To determine whether the BH4 domain or the loop region was responsible for binding to TR3/ΔDBD, TR3/ΔDBD interaction with Bcl-2 mutants lacking the BH4 domain (Bcl-2/ΔBH4) or the loop region (Bcl-2/ΔLoop) was analyzed. […] Thus, the loop region of Bcl-2 is involved in binding to TR3.

[6] abbreviates: 293T, co-expressed with Bcl-2, 36 h, DAPI.

T1 sequence (P10415 whole entry): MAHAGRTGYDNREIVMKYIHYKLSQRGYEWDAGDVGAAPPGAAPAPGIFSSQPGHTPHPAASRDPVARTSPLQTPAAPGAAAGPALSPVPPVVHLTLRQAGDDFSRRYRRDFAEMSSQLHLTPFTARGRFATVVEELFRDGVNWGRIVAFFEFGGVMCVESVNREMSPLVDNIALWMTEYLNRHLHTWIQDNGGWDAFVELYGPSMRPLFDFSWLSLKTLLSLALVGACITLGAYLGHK
T2 sequence (P10415 with tags, fused parts or gaps DEL7-30): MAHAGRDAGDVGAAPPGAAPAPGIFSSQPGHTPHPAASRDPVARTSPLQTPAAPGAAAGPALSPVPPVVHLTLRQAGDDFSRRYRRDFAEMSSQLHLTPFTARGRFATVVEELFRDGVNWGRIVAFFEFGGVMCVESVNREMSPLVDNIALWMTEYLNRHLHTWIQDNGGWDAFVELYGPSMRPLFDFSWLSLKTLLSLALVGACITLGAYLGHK

B1: TR3/ΔDBD: TR3 mutant with the DNA binding domain removed; used as GFP fusion (protein)
chain: MPCIQAQYGTPAPSPGPRDHLASDPLTPEFIKPTMDLASPEAAPAAPTALPSFSTFMDGYTGEFDTFLYQLPGTVQPCSSASSSASSTSSSSATSPASASFKFEDFQVYGCYPGPLSGPVDEALSSSGSDYYGSPCSAPSPSTPSFQPPQLSPWDGSFGHFSPSQTYLVLHRLQCARGFGDWIDSILAFSRSLHSLLVDVPAFACLSALVLITDRHGLQEPRRVEELQNRIASCLKEHVAAVAGEPQPASCLSRLLGKLPELRTLCTQGLQRIFYLKLEDLVPPPPIIDKIFMDTLPF
modifications: left off: large carriers; small tags and cut ends
notes: used as GFP fusion
With B1, the “Bcl-2 immunofluorescence, antibody against BH3-binding pocket” value in assay [1] was “reduced”. Moreover, the “Bcl-2 immunofluorescence, antibody against Bcl-2 BH3 domain” value in assay [1] is “dramatically increased”. Besides, in assay [1], the “Bcl-2 immunofluorescence, antibody against whole Bcl-2 protein” value is on record as “did not result in altered Bcl-2 immunofluorescence”. The mitochondrial colocalization result in assay [2] is reported as “colocalized extensively with DsRed2-Mito”. In addition, the apoptosis entry is “augmented” in assay [3] (setting [6]); “did not result in apoptosis” in assay [3] (293T, coexpression with Bcl-2/ΔTM); “unable to induce apoptosis” in assay [3] (293T, cotransfected with Bcl-2 Y108K); “did not induce cell death” in assay [3] (HEK293T, co-expression with Bcl-2/ΔLoop); “retained the ability to promote apoptosis” in assay [3] (co-expressed with Bcl-2 L137A and G145A); “incapable of inducing apoptosis” in assay [3] (co-expressed with Bcl-2 mutants lacking TM, BH1, BH2 or BH3 domain). The apoptotic cells result in assay [3] (293T, transfected alone, 36 h, DAPI) was “approximately 4%”; in assay [3] (293T, transfected with both TR3/ΔDBD and Bcl-2, 36 h, DAPI), 35%. Besides, in assay [4], the “binding of Bcl-2 by antibody against BH3-binding pocket” value is reported as “reduced binding”. For the same molecule, the “binding of Bcl-2 by antibody against BH3 domain” value in assay [4] is recorded as “enhancing binding”. Besides, the “immunoprecipitation efficiency of antibody against whole Bcl-2 protein” value in assay [4] was “did not affect”. Also, the “interaction with Bcl-2/ΔBH4 (Co-IP)” value in assay [5] is on record as “retained the ability to interact”.

B2: TR3/ΔDBD/Δ471-488: TR3/ΔDBD with eighteen amino acids from 471 to 488 in the DC1 region deleted (protein)
chain: MPCIQAQYGTPAPSPGPRDHLASDPLTPEFIKPTMDLASPEAAPAAPTALPSFSTFMDGYTGEFDTFLYQLPGTVQPCSSASSSASSTSSSSATSPASASFKFEDFQVYGCYPGPLSGPVDEALSSSGSDYYGSPCSAPSPSTPSFQPPQLSPWDGSFGHFSPSQTYLVLFSRSLHSLLVDVPAFACLSALVLITDRHGLQEPRRVEELQNRIASCLKEHVAAVAGEPQPASCLSRLLGKLPELRTLCTQGLQRIFYLKLEDLVPPPPIIDKIFMDTLPF
modifications: left off: large carriers; small tags and cut ends
notes: TR3/ΔDBD with eighteen amino acids from 471 to 488 in the DC1 region deleted
Consider B2, for which the apoptosis entry in assay [3] (setting [6]) is listed as “failed to confer the apoptotic potential of Bcl-2”.
